Earlier results as cited in paper PMC5969510, “Molecular mechanics of coiled coils loaded in the shear geometry” (Chemical Science, 2018).

Details: unzip geometry
Description: To overcome these limitations and to investigate the sequence–structure–mechanics relationship of coiled coils in more systematic detail, site-specific coupling strategies were used in more recent experiments so that the mechanical coordinate was precisely defined. Using coiled coil homodimers, the force was applied to both helices at the same terminus so that the coiled coils were mechanically loaded in the so-called ‘unzip’ geometry.[11],[17],[37],[38]

vimentin: intermediate filament protein with coiled coil (literature)
unzipping (unfolding) force: 8–15 pN
